Experiment [1] addresses NKG2D on human NK cells (human (endogenous in NK cells and CD8+ T cells from PBMC)) (UniProt P26718).
Experiment [2] shares this target. The source holds these as a separate data set.
Experiment [3] has the same target. This is another data set of the same source.
The target is the same in experiment [4]. The source holds these as a separate data set.
The target is the same in experiment [5]. The source holds these as a separate data set.
For experiment [6] the target is unchanged. The source holds these as a separate data set.
The target is the same in experiment [7]. This is another data set of the same source.

Chain of UniProt P26718 (P26718 whole entry): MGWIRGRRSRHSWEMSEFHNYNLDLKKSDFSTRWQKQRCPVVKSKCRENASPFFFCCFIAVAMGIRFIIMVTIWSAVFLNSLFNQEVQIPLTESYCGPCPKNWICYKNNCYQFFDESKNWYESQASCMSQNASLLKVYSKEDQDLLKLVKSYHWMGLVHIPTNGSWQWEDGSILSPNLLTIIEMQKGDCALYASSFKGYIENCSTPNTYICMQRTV

As for “MICA-129Met variant (MICA*00701 allele) expressed on L cells (from UniProt Q29983 24-383) (ligand)”, the regression coefficient of the MFI of CD107a on NK cells against MICA expression intensity on target clones in experiment [1] stood at 0.05. For the same substance, in experiment [2], the down-regulation of NKG2D on NK cells co-cultured 4 and 24 h with L cell clones: MFI of NKG2D against L-con was found to be 13.7 MFI units; the down-regulation of NKG2D on NK cells co-cultured 4 and 24 h with L cell clones: percentage of NKG2D+ NK cells against L-con amounted to 19.4 %-points; the down-regulation of NKG2D on NK cells: percentage of NKG2D+ cells, difference between L-MICA-129Met and L-MICA-129Val targets (%-points against L-MICA-129Val) is -9.3. For the same substance, in experiment [3], the NKG2D expression on CD56brightCD16+ NK cells after 4 and 24 h, lower with L-MICA-129Met than with L-MICA-129Val clones (%-points lower than with L-MICA-129Val) came out at 16.2; the NKG2D expression on CD56brightCD16- NK cells after 4 and 24 h, lower with L-MICA-129Met than with L-MICA-129Val clones (%-points lower than with L-MICA-129Val) was determined as 15.8; the NKG2D expression on CD56dimCD16+ NK cells after 4 and 24 h, lower with L-MICA-129Met than with L-MICA-129Val clones (%-points lower than with L-MICA-129Val) came to 19.5. Moreover, the regression coefficient of the MFI of IFNγ in CD56brightCD16- NK cells against MICA expression intensity in experiment [4] was -1.11. Moreover, in experiment [5], the down-regulation of NKG2D on CD8+ T cells co-cultured with L cell clones: MFI of NKG2D, difference to L-MICA-129Val (MFI units more than with L-MICA-129Val) turned out to be 12.1 and the down-regulation of NKG2D on CD8+ T cells co-cultured with L cell clones: proportion of NKG2D+CD3+CD8+ cells, difference to L-MICA-129Val (%-points more than with L-MICA-129Val) was 35.8. In experiment [6], the regression coefficient of killing by LAK cells against MICA expression intensity on target clones was -0.0834. In experiment [7], this substance showed an IFNγ release (ELISA) of NK cells co-cultured 24 h with L cell clones, difference to L-MICA-129Val, adjusted for MICA expression (pg/ml higher than with L-MICA-129Val) of 176 and an IFNγ release (ELISA) of NK cells, effect of MICA expression intensity on target clones (pg/ml per MFI unit) of 0.142.
In experiment [1], “MICA-129Val variant (MICA*00701 with valine at position 129) expressed on L cells (from UniProt Q29983 24-383) (ligand)” came in with a degranulation of NK cells exposed to L cell clones: MFI of CD107a, difference to L-MICA-129Met, adjusted for MICA expression (MFI units lower than with L-MICA-129Met) of 38.5; a degranulation of NK cells exposed to L cell clones: percentage of CD107a+ NK cells, difference to L-MICA-129Met, adjusted for MICA expression (%-points less than with L-MICA-129Met) of 10.1; a regression coefficient of the MFI of CD107a on NK cells against MICA expression intensity on target clones of 0.29. In experiment [2], this substance showed a down-regulation of NKG2D on NK cells co-cultured 4 and 24 h with L cell clones: MFI of NKG2D against L-con of 11.8 MFI units; a down-regulation of NKG2D on NK cells co-cultured 4 and 24 h with L cell clones: percentage of NKG2D+ NK cells against L-con of 9.5 %-points. In experiment [4], the intracellular IFNγ (MFI) in CD56brightCD16- NK cells co-cultured 4 h with L cell clones, difference to L-MICA-129Met (MFI units lower than with L-MICA-129Met) was found to be 12.5; the percentage of IFNγ+ CD56brightCD16- NK cells co-cultured 4 h with L cell clones, difference to L-MICA-129Met (%-points less than with L-MICA-129Met) was 7.5; the regression coefficient of the MFI of IFNγ in CD56brightCD16- NK cells against MICA expression intensity turned out to be 0.09; the regression coefficient of the proportion of IFNγ+ CD56brightCD16- NK cells against MICA expression intensity worked out at 0.14. In experiment [6], this substance had a regression coefficient of killing by LAK cells against MICA expression intensity on target clones of 0.126 and a relative lysis of L cell clones by LAK cells (51Cr release, E:T 200:1), difference to L-MICA-129Met, adjusted for MICA expression (%-points reduced against L-MICA-129Met) of 13. In addition, in experiment [7], the IFNγ release (ELISA) of NK cells, effect of MICA expression intensity on target clones (pg/ml per MFI unit of MICA) worked out at 1.1.

(Values after PMC4644379.)
